Results from paper PMC7020990, “Structural and biochemical analysis of the metallo‐β‐lactamase L1 from emerging pathogen Stenotrophomonas maltophilia revealed the subtle but distinct di‐metal scaffold for catalytic activity” (Protein Science : A Publication of the Protein Society, 2019).

Biological target: the molecule itself
Assay: crystal structure; L1‐Native in space group P2_(1) with the tetramer in the asymmetric unit; all other L1 structures in P6_(4)22 with one chain in the asymmetric unit and the same tetramer formed by crystallographic twofold symmetries

B1: Metallo‐β‐lactamase L1 from Stenotrophomonas maltophilia K279a (enzyme)
chain: SNASAAEAPLPQLRAYTVDASWLQPMAPLQVADHTWQIGTEDLTALLVQTAEGAVLLDGGMPQMAGHLLDNMKLRGVAPQDLRLILLSHAHADHAGPVAELKRRTGAHVAANAETAVLLARGGSNDLHFGDGITYPPASADRIIMDGEVVTVGGIAFTAHFMPGHTPGSTAWTWTDTRDGKPVRIAYADSLSAPGYQLKGNPRYPRLIEDYKRSFATVRALPCDLLLTPHPGASNWNYAVGSKASAEALTCNAYADAAEKKFDAQLARETAGTR
notes: N-terminal Ser‐Asn‐Ala cloning artifact left after TEV cleavage (numbered residues 17–19); Metallo‐β‐lactamase L1 (subclass B3), S. maltophilia K279a, residues 20-290; 88% identical to the L1 of the other strain in earlier structures; Two Zn ions per chain in the native form; Cloned in pMCSG53; also called L1 MBL; L1‐Native; not shown: His‐tag, N-terminal, cleaved
  stoichiometry N: 4
